Measured values from PMC7464140, “Cooperative Regulation of Campylobacter jejuni Heat-Shock Genes by HspR and HrcA” (Microorganisms, 2020).

Target: the molecule itself
Test: cross-linking; in vitro chemical cross-linking of HrcA and HspR proteins with formaldehyde (Figure S2)

B1: His-tagged HrcA (C. jejuni) (natural protein, UniProt Q9PPG2 1-264, looked up)
chain: MMKSRDKKDLILESIIQTYLLDNAPIGSNELNSNLCIPASTIRVYLKRLSDEGLITQLHISSGRIPTILTMQNYWQNFWEKEQDKNIHIKNESFLKELSKEFEIYCLVYGGRSLVLKEVLDLNTKFIVLDFEDEELVLKYEKEAWNFLQSLIGLDLSSIEKIALRVHFIDLVEKIASLRQNLICYRSNEERAYQIYQNDEFVKLLDCQIHRHFKESLEFEPLFKEGFMGLKVDAQFLGEDVNIILAGSVYTDYKKILQYIKEAA
notes: HrcA heat-shock transcriptional repressor of Campylobacter jejuni; it could also have been GST-HrcA; also called His-HrcA; recombinant HrcA protein; source: E. coli BL21 (DE3), pET15b-hrcA, purified (Ni2+-NTA)
- stoichiometry N: 2

B2: His-tagged HspR (C. jejuni) (natural protein, UniProt Q0P926 1-124, looked up)
chain: MEQHYDEPVYLISVVAKVLSIHPQTLRQYEREGLIEPSRTDGKIRLYSQRDIDRIKLILRLTRDMGINLAGVDVILKLKNQLHEFENLIDELRLELSKQQDKEAASKAVVKHKNSFDLIFYEKK
notes: HspR heat-shock transcriptional repressor of Campylobacter jejuni; Probably strain NCTC11168, the only C. jejuni strain named; also called His-HspR; recombinant His-tagged HspR; source: E. coli BL21 (DE3), pET15b-hspR, purified (Ni2+-NTA)
- stoichiometry N: 2
